Patent US20150272885A1 (STC UNM, published 2015)
No end group written: not given here.

Legend:
[1] = target: Met (hepatocyte growth factor receptor) on Hep3B cells (human) (UniProt P08581); assay: flow cytometry saturation binding on cytochalasin D-treated Hep3B cells, 1 hour at 37 C; specific binding = total minus binding with saturating unlabeled HGF; apparent Kd of the multivalent particle
[2] = target: T1, ephrin B2 (EB2) on cells (human, UniProt P52799 28-333); assay: phage display selection on CHO-K1 cells expressing human EB2, with counter-selection on parental CHO-K1 and on CHO-K1 expressing ephrin B1
T1 construct: whole, on cells; The species is stated as human for the CHO-K1 transfectants; also called human ephrin B2
T1 sequence (P52799 28-333): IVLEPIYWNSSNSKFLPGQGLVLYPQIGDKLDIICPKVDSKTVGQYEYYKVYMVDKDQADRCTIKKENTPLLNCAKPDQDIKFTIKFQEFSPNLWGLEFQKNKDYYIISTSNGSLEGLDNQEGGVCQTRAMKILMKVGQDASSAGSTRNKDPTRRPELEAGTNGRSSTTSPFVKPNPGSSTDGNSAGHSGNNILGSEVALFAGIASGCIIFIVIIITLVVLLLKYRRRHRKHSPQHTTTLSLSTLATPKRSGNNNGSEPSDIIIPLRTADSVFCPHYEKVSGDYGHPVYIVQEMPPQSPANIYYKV

[3] = target: T1, ephrin B2 (EB2) on cells; assay: flow cytometry, EB2-positive HEK 293 against EB2-negative parental CHO-K1
[4] = target: T2, recombinant human Met (rhMet), fused to the Fc domain of human IgG (human, UniProt P08581 25-932); assay: phage display selection on rhMet-Fc, five rounds; phage ELISA on rhMet
T2 construct: also called MET receptor; hepatocyte growth factor receptor; not shown: Fc domain of human IgG
T2 sequence (P08581 25-932 limits assumed): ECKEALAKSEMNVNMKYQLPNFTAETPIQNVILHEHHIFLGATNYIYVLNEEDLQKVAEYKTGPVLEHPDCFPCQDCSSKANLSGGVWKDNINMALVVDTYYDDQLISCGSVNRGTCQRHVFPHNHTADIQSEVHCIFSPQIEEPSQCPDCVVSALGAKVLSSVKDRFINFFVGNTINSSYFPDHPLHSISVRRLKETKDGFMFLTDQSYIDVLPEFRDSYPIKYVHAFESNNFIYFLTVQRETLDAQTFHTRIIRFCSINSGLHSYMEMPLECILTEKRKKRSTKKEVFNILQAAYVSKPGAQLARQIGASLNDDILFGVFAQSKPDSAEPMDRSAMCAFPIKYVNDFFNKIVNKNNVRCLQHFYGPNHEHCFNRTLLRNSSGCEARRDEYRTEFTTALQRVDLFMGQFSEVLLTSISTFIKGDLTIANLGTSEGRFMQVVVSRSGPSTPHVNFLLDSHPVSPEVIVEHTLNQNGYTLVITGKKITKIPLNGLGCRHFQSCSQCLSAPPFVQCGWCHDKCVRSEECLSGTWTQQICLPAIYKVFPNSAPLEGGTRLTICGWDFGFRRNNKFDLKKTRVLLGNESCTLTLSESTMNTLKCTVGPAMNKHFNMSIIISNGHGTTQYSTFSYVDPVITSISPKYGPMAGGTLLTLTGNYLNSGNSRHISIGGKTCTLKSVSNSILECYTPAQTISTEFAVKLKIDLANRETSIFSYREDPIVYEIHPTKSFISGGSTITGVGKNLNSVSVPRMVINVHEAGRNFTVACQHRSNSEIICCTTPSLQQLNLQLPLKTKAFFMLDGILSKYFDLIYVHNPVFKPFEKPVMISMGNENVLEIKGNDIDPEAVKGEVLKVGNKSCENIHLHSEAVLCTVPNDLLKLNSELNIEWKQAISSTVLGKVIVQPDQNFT
Protocol: Peptides at 1×10¹¹ pfu/mL were incubated with 100 nM of recombinant human Met (rhMet), fused to the Fc domain of human IgG, for 1 hour at room temperature. […] Bound phage clones were eluted with a low-pH buffer (0.2 M glycine with 1 mg/mL BSA, pH 2.2), and elutants were amplified via infection of the host bacterium (E. coli ER2738).
1×10¹¹ pfu/mL were incubated with 100 nM of recombinant human Met (rhMet), fused to the Fc domain of human IgG, for 1 hour at room temperature. […] Bound phage clones were eluted with a low-pH buffer (0.2 M glycine with 1 mg/mL BSA, pH 2.2), and elutants were amplified via infection of the host bacterium (E. coli ER2738). […] Peptides specific for protein A and protein G were avoided by alternating rounds of selection between protein A-coated magnetic particles and protein G-coated magnetic particles. After five rounds of selection, DNA was recovered from 40 individual clones and sequenced using the −96 gIII primer provided with the Ph.D.™-7 kit.

Sequence of Met (hepatocyte growth factor receptor) on Hep3B cells (human) (P08581 25-1390): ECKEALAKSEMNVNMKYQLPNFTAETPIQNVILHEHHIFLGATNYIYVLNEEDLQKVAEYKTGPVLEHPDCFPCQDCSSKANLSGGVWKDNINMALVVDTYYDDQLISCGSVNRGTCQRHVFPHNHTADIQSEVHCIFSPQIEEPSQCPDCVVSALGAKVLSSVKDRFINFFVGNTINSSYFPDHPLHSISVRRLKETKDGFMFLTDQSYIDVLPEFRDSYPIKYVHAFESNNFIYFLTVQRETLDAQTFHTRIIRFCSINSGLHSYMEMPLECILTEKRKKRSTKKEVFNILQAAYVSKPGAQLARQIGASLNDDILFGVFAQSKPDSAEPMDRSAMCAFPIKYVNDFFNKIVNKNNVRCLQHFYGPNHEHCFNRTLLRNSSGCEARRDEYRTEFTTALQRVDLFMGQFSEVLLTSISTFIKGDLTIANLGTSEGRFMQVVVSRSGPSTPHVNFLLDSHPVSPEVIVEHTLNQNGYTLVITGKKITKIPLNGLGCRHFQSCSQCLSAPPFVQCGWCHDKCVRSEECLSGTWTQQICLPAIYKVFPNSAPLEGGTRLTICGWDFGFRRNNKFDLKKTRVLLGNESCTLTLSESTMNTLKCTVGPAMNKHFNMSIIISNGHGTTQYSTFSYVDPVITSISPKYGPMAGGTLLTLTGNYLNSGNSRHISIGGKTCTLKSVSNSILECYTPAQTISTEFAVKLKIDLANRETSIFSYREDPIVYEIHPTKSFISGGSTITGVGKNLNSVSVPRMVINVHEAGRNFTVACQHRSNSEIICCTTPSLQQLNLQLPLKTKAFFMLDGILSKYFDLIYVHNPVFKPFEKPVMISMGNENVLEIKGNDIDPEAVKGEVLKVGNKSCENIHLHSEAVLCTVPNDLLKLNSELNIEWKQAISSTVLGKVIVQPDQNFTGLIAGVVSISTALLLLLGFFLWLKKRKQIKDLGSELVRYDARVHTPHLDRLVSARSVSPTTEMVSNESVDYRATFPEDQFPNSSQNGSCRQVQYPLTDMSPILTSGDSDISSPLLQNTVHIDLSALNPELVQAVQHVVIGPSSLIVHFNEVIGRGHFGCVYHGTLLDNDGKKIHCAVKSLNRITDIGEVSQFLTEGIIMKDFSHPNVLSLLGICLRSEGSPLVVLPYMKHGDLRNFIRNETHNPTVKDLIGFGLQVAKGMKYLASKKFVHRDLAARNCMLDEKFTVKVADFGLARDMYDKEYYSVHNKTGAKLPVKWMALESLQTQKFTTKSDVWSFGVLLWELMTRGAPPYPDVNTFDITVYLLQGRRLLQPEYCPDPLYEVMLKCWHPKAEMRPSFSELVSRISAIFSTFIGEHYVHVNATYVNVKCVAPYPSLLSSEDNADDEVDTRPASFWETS

Binder | binding result [4] | further results
ASVHFPPC (peptide, not shown: small tags and cut ends, also: C-terminal Cys conjugated via sulfhydryl-to-amine crosslinker to DOPE in the protocell lipid bilayer) |  | Kd [1]: 1.05 nM
TGAILHP (7-mer from phage display; It was selected on CHO-K1 cells expressing human ephrin B2, with counter-selection on parental CHO-K1 and on CHO-K1 expressing human ephrin B1; also called ephrin B2 targeting peptide) [TGAILHP peptide (SEQ ID NO: 18)] |  | binding result [2]: binds
TGAILHP (other, not fully specified, Multivalent display on mesoporous silica nanoparticle-supported lipid bilayers; also called MSN-SLBs modified with 0.015 wt % of TGAILHP and 10 wt % PEG-2000) [TGAILHP-targeted MSN-SLBs, low peptide valency (0.015 wt % or ~5 peptides/particle)] |  | fold higher affinity for HEK 293 cells than for EB2-negative cells (parental CHO-K1) [3]: 1000 fold
ASVHFPP (7-mer selected from the Ph.D.-7 phage display library; also called MC40 clone) [MC40 targeting peptide ASVHFPP (SEQ ID NO: 1)] | binds | 
TATFWFQ (7-mer from Ph.D.-7 phage display, tested as a phage clone) [MET binding peptide TATFWFQ (SEQ ID NO: 2)] | binds | 
TSPVALL (7-mer from Ph.D.-7 phage display, tested as a phage clone) [MET binding peptide TSPVALL (SEQ ID NO: 3)] | binds | 
IPLKVHP (7-mer from Ph.D.-7 phage display, tested as a phage clone) [MET binding peptide IPLKVHP (SEQ ID NO: 4)] | binds | 
WPRLTNM (7-mer from Ph.D.-7 phage display, tested as a phage clone) [MET binding peptide WPRLTNM (SEQ ID NO: 5)] | binds | 
